What is called EC50 is the concentration that produces a half-maximal response. A low value points to higher potency in that assay.

The target of assay [1] is T1, human PSMA antigen (R&D SYSTEM, 4234-ZN-010) (human, UniProt Q04609 44-750).
T1 construct: bought antigen
Description: ELISA, plate-bound PSMA antigen. The procedure: To test the ability of the PSMA-targeting humanized antibodies of the present disclosure to bind to PSMA antigen, the ELISA method was used in this test example to measure the binding of the PSMA-targeting humanized antibodies to human PSMA antigen (purchased from R&D SYSTEM, 4234-ZN-010). The specific steps are as follows: A 96-well plate was coated with PSMA antigen at 1 μg/well and placed at 4° C. overnight. After the supernatant was discarded, the plate was blocked with 5% skim milk for 2 h. Different concentrations of humanized antibodies were prepared using 1% BSA. The initial concentration was 10 μg/mL and was serially diluted 4-fold to obtain 12 concentrations. After the blocked 96-well plate was washed twice, the […] was added, and the plate was incubated at 4° C. for 1 h. After four washes, the plate was incubated with Strepidation-HRP secondary antibody (1:10,000) at 4° C. for 1 h. After color development with TMB, the reaction was stopped with 0.1 M sulfuric acid.
On the technique in general: ELISA stands for enzyme-linked immunosorbent assay.

Assay [2] deals with T2, human PSMA on cells (Cho-hPSMA, CHO-K1 cells overexpressing full-length human PSMA) (human, UniProt Q04609 1-750).
T2 construct: whole, on cells; also called cell surface PSMA; PSMA-expressing Lncap cells
T2 sequence (Q04609 whole entry): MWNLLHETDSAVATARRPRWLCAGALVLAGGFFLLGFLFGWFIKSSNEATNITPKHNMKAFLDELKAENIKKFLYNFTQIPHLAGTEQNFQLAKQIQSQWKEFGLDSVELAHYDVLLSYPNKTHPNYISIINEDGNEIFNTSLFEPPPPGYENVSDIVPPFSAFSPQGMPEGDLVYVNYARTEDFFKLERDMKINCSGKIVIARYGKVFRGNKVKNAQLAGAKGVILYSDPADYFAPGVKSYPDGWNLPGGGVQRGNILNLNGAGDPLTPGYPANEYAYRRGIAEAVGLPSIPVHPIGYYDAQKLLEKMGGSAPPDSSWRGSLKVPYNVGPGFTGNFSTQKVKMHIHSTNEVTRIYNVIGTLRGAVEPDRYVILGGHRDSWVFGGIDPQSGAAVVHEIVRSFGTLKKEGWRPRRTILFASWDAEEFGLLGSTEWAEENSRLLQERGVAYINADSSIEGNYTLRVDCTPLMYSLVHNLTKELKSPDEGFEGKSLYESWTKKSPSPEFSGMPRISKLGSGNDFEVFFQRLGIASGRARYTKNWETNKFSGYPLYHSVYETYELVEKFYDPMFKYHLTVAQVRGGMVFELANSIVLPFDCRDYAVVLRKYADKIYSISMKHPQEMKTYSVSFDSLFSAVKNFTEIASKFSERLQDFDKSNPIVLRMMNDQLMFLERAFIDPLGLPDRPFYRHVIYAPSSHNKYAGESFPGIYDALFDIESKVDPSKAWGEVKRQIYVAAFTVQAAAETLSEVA
Description: cell ELISA (OD450), Cho-hPSMA cells. As for the experimental part:
Experiment 2: Cells were cultured and inoculated onto a cell plate using the same method as in Experiment 1. The antibodies were serially diluted, and the antibody solutions were added to the cell plate at 100 μL/well. The plate was incubated at 4° C. for 1 h and then washed. An HRP-Goat Anti-human IgG (H+L) secondary antibody dilution (1:8000) was added to the cell plate at 100 μL/well, and the plate was incubated at 4° C. for 1 h and then washed by centrifugation. After color development with TMB, the reaction was stopped with 0.1 M sulfuric acid, and OD450 values were measured.

Where a chain is given by its changes, count along the chain named.

T1 sequence (Q04609 44-750 limits assumed): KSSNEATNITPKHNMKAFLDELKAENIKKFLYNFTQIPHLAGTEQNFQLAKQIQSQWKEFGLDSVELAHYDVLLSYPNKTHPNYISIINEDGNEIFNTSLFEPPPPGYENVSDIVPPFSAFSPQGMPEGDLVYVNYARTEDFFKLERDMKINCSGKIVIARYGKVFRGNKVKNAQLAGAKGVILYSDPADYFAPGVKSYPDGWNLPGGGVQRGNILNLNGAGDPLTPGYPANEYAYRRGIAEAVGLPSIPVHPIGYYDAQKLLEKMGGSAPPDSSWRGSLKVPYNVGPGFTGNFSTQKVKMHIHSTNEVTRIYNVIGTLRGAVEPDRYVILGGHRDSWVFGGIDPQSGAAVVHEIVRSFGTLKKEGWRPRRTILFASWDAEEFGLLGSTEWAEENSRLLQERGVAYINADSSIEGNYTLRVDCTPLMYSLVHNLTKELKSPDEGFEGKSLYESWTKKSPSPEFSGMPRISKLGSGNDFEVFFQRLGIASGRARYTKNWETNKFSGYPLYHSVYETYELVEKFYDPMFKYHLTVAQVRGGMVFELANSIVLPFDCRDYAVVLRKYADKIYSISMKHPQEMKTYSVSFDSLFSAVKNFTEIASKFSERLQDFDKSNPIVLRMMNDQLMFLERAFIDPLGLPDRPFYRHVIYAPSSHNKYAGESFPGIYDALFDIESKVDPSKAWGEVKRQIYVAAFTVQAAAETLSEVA

B1: hu2H1L1 (antibody, human IgG1, kappa, V domains shown)
VH: EVQLVESGGGLVQPGGSLRLSCAASGFTFSDYYMAWVRQAPGKGLEWVANINFDGSSTYYLDSLKSRFTISRDNAKNSLYLQMNSLRAEDTAVYYCARDLDGYYGYFDVWGQGTTVTVSS
VL: EIVLTQSPDFQSVTPKEKVTITCSASSSVSHMYWYQQKPDQSPKLLIYRTSNLASGVPSRFSGSGSGTDFTLTINSLEAEDAATYYCQQYHSYPLMFGQGTKLEIKR
On to B1, for which, in assay [1], the EC50 is 0.0354 µg/mL and the “Top (maximum absorbance)” value was found to be 0.975 absorbance.

B2: hu27H1L6 (antibody, human IgG1, kappa)
heavy: not shown
light: QIVLTQSPDFQSVTPKEKVTIQCSASSSVSYMYWYQQKPDQSPKPWIYRTSNLASGVPSRFSGSGSGTDYTLTINSLEAEDAATYYCQQYHSYPLTFGQGTKLEIKRTVAAPSVFIFPPSDEQLKSGTASVVCLLNNFYPREAKVQWKVDNALQSGNSQESVTEQDSKDSTYSLSSTLTLSKADYEKHKVYACEVTHQGLSSPVTKSFNRGEC
Take B2: the EC50 in assay [2] was found to be 2.77 µg/mL. Besides, in assay [1], the EC50 came out at 0.398 µg/mL and the “Top (maximum absorbance)” value was 0.553 absorbance.

B3: hu46H2L2 (antibody, human IgG1, kappa, V domains shown)
VH: EVQLVESGGGLVKPGGSLRLSCAASGFTFSNYGMSWVRQAPGKGLEWVSTIGSGGGYTYYSDSVKGRFTISRDNAKNSLYLQMNSLRAEDTAVYYCVRHPQIGYWGQGTLVTVSS
VL: DIQMTQSPSSLSASVGDRVTITCKASQSVGTAVAWYQQKPGKAPKLLIYSASSRYTGVPSRFSGSGSGTDFTLTISSLQPEDFADYFCHQYSSYPLTFGGGTKVEIKR
In the case of B3, the results for the EC50 in assay [2] and in assay [1] were 0.0202 µg/mL and 0.0365 µg/mL, respectively. The “Top (maximum absorbance)” value in assay [1] was 1.67 absorbance.

B4: hu27H1L2 (antibody, human IgG1, kappa)
heavy: not shown
light: B2 light with Q1E, Q22T
In assay [2], B4 registered an EC50 of 1.65 µg/mL.

B5: hu27H1L3 (antibody, human IgG1, kappa)
heavy: not shown
light: B2 light with Q22T
Molecule B5 gave an EC50 in assay [2] of 1.4 µg/mL.

B6: hu27H1L5 (antibody, human IgG1, kappa)
heavy: not shown
light: B2 light with Q1E
The molecule B6 returned an EC50 in assay [2] of 2.39 µg/mL.

B7: hu27H1L1 (antibody, human IgG1, kappa)
heavy: not shown
light: B2 light with Q1E, Q22T, Y70F
The molecule B7 came in with an EC50 in assay [2] of 1.17 µg/mL.

B8: hu27H1L4 (antibody, human IgG1, kappa)
heavy: not shown
light: B2 light with Q1E, Y70F
For the molecule B8, in assay [2], the EC50 worked out at 1.73 µg/mL.

B9: hu31H1L1 (antibody, human IgG1, kappa, V domains shown)
VH: EVQLVESGGGLVQPGGSLRLSCAASGFTFSDYYMAWVRQAPGKGLEWVASINYDGSSTYYLDSLKSRFTISRDNAKNSLYLQMNSLRAEDTAVYYCAGSDGYWAWFAYWGQGTLVTVSS
VL: DIQMTQSPSSLSASVGDRVTITCRASGNIHNYLAWYQQKPGKAPKLLIYNAETLADGVPSRFSGSGSGTDFTLTISSLQPEDFATYYCQHFWSTPPTFGGGTKVEIKR
For the molecule B9, the EC50 is 0.142 µg/mL in assay [2] and 0.0864 µg/mL in assay [1]. Further, the “Top (maximum absorbance)” value in assay [1] was determined as 1.76 absorbance.

B10: chi73 (antibody, human IgG1, kappa, V domains shown)
VH: QVQLQQSGPELVKPGASVKISCKASGYAFSTSWMNWVKERPGKGLEWIGRIYPGDGDTKYNGKFQGKATLTADKSSSTAYMKLSSLTSEDSAVYFCVRSIYYLYYFDYWGQGTTLTVSS
VL: DIQMTQPTSSLSASLGDRVTISCSTSQDIYNNLSWFQQKPDGTVRLLIYYTSSLHSGVPSRFSGSGSGTDYSLTISNLEPEDIATYYCQQYNNLPFTFGGGTNLEIRR
On to B10, for which, in assay [1], the response was half-maximal at 0.029 µg/mL (EC50) and the “Top (maximum absorbance)” value is 2.08 absorbance.

B11: hu15H4L2 (antibody, human IgG1, kappa, V domains shown)
VH: EFQLVQSGAEVKKPGASVKVSCKASGYSFTDHNMNWVRQAPGQRLEWMGLINPNYGTADYNQKFKGRVTLTVDQSATTAYMELSSLRSEDTAVYYCARGSSLFAYWGQGTLVTVSS
VL: DIQMTQSPSSLSASVGDRVTITCKASQGVDTAVAWYQQKPGKSPKLLIYWASTRHTGVPDRFSGSGSGTDFTLTISSLQPEDVATYYCQQYSRYPLTFGQGTKLEIKR
As for B11, the figures for the EC50 in assay [2] and in assay [1] were 0.0795 µg/mL and 0.0421 µg/mL, respectively. In assay [1], the “Top (maximum absorbance)” value is 2.23 absorbance.

B12: hu43H3L2 (antibody, human IgG1, kappa, V domains shown)
VH: EVQFVESGGGLVQPGGSLRLSCAASGFTFSNYWMNWLRQAPGKGLEWVAQVRLKSDNYATHYAESVKGRFTISREDAKNSAYLQMNSLRAEDTAVYYCSENYYGPAGPFDFWGQGTTVTVSS
VL: B11 VL with G28N, D30H, A32S, W50S, T53N, H55Y, T56S, D60S, R93S
Turning to B12, the EC50 was 4.03 µg/mL in assay [2] and 1.06 µg/mL in assay [1]. In addition, the “Top (maximum absorbance)” value in assay [1] is 0.245 absorbance.

B13: hu50H1L2 (antibody, human IgG1, kappa)
heavy: not shown
light: DVFMTQSPLSLPVTPGEPASISCRSSQSILHSNGNTYLEWYLQKPGQSPQLLIYRVSNRFSGVPDRFSGSGSGTDFTLKISRVEAEDVGVYYCFQGLHVPPTFGQGTKLEIKRTVAAPSVFIFPPSDEQLKSGTASVVCLLNNFYPREAKVQWKVDNALQSGNSQESVTEQDSKDSTYSLSSTLTLSKADYEKHKVYACEVTHQGLSSPVTKSFNRGEC
notes: also called hu50L2H1
In assay [2], B13 came in with an EC50 of 0.0603 µg/mL. Further, in assay [1], a half-maximal effect (EC50) was put at 0.0421 µg/mL and the “Top (maximum absorbance)” value was 1.3 absorbance.

B14: hu41H2L2 (antibody, human IgG1, kappa, V domains shown)
VH: EVQLVQSGAEVKKPGASVKVSCKASGYTFTSYGISWVRQAPGQGLEWMGEIFPRRGNTYYNEKFRGRVTLTADKSTSTAYMELRSLRSDDTAVYYCARVFDGYYNYAMDYWGQGTTVTVSS
VL: DIQMTQSPSSLSASVGDRVTITCRASQDIGSSLNWLQQKPGKAIKRLIYATSSLDSGVPSRFSGSRSGTDYTLTISSLQPEDFATYYCLQYASSPYTFGGGTKVEIKR
In assay [2], B14 gave an EC50 of 1.1 µg/mL. In assay [1], the EC50 was 0.61 µg/mL and the “Top (maximum absorbance)” value came to 0.421 absorbance.

B15: hu71H3L1 (antibody, human IgG1, kappa)
heavy: not shown
light: DIVMTQTPLSLPVTPGEPASISCRSSQSLVHSYGNTYLHWYLQKPGQSPQLLIYKVSNRFSGVPDRFSGSGSGTDFTLKISRVEAEDVGVYYCSQTTHVPWTFGGGTKVEIKRTVAAPSVFIFPPSDEQLKSGTASVVCLLNNFYPREAKVQWKVDNALQSGNSQESVTEQDSKDSTYSLSSTLTLSKADYEKHKVYACEVTHQGLSSPVTKSFNRGEC
In turn, B15 registered an EC50 in assay [2] of 0.086 µg/mL.

B16: hu71H3L2 (antibody, human IgG1, kappa)
heavy: not shown
light: B15 light with I2V, M4V
notes: also called hu71L2H3
Molecule B16 yielded an EC50 in assay [2] of 0.112 µg/mL. Moreover, in assay [1], it took 0.0589 µg/mL to reach a half-maximal effect (EC50) and the “Top (maximum absorbance)” value was 0.952 absorbance.

B17: hu71H4L1 (antibody, human IgG1, kappa)
heavy: not shown
light: B15 light
B17 yielded an EC50 in assay [2] of 0.101 µg/mL.

B18: hu71H1L1 (antibody, human IgG1, kappa)
heavy: not shown
light: B15 light
The molecule B18 registered an EC50 in assay [2] of 0.12 µg/mL.

B19: hu71H2L2 (antibody, human IgG1, kappa)
heavy: not shown
light: B15 light with I2V, M4V
In turn, B19 had an EC50 in assay [2] of 0.116 µg/mL.

B20: hu71H2L1 (antibody, human IgG1, kappa)
heavy: not shown
light: B15 light
B20: it took 0.0631 µg/mL to reach a half-maximal effect in assay [2] (EC50).

B21: hu71H1L2 (antibody, human IgG1, kappa)
heavy: not shown
light: B15 light with I2V, M4V
Consider B21, for which, in assay [2], the EC50 was found to be 0.11 µg/mL.

B22: hu71H4L2 (antibody, human IgG1, kappa)
heavy: not shown
light: B15 light with I2V, M4V
In turn, B22 displayed an EC50 in assay [2] of 0.0867 µg/mL.

B23: Chi31 (antibody, human IgG1, kappa, V domains shown)
VH: EVKLVESEGGLVQPGSSKKLSCTASGFTFSDYYMAWVRQVPEKGLEWVASINYDGSSTYYLDSLKSRFIISRDNAKNNLYLQMNSLKSEDTATYYCAGSDGYWAWFAYWGQGTLVTVSA
VL: DIQMTQSPASLSASVGEAVTITCRASGNIHNYLAWYQQKQGKSPQLLVYNAETLADGVPSRFSGSGSGTQFSLKINSLRPEDFGSYYCQHFWSTPPTFGGGTKLEIKR
Turning to B23, the response in assay [2] was half-maximal at 0.141 µg/mL (EC50).

(Values after patent US20250043022A1 (JIANGSU HENGRUI PHARMACEUTICALS, published 2025).)
